This note sets out measurements from article PMC5913336, “True equilibrium measurement of transcription factor-DNA binding affinities using automated polarization microscopy”.

For orientation: Kd means a measure of binding affinity in units of concentration.

B1: Bcd consensus (dsDNA)
DNA 1: TCGACGGTAATCCCTA
DNA 2: TAGGGATTACCGTCGA
B2: Bcd oligo 6 (dsDNA)
DNA 1: TCGACAGTAATCCCTA
DNA 2: TAGGGATTACTGTCGA
B3: Bcd oligo 5 (dsDNA)
DNA 1: TCGACTGTAATCCCTA
DNA 2: TAGGGATTACAGTCGA
B4: Bcd oligo 25 (dsDNA)
DNA 1: TCGACGGTAATCGCTA
DNA 2: TAGCGATTACCGTCGA
B5: Bcd oligo 12 (dsDNA)
DNA 1: TCGACGGAAATCCCTA
DNA 2: TAGGGATTTCCGTCGA
B6: Bcd oligo 15 (dsDNA)
DNA 1: TCGACGGTTATCCCTA
DNA 2: TAGGGATAACCGTCGA
B7: Bcd oligo 18 (dsDNA)
DNA 1: TCGACGGTATTCCCTA
DNA 2: TAGGGAATACCGTCGA
B8: Bcd oligo 22 (dsDNA)
DNA 1: TCGACGGTAATGCCTA
DNA 2: TAGGCATTACCGTCGA
B9: Bcd oligo 4 (dsDNA)
DNA 1: TCGACCGTAATCCCTA
DNA 2: TAGGGATTACGGTCGA
B10: Bcd oligo 10 (dsDNA)
DNA 1: TCGACGGCAATCCCTA
DNA 2: TAGGGATTGCCGTCGA
B11: Bcd oligo 31 (dsDNA)
DNA 1: TCGACGGTAATCCCCA
DNA 2: TGGGGATTACCGTCGA
B12: Bcd oligo 23 (dsDNA)
DNA 1: TCGACGGTAATTCCTA
DNA 2: TAGGAATTACCGTCGA
B13: Bcd oligo 7 (dsDNA)
DNA 1: TCGACGCTAATCCCTA
DNA 2: TAGGGATTAGCGTCGA
B14: Bcd oligo 32 (dsDNA)
DNA 1: TCGACGGTAATCCCGA
DNA 2: TCGGGATTACCGTCGA
B15: Bcd oligo 17 (dsDNA)
DNA 1: TCGACGGTAGTCCCTA
DNA 2: TAGGGACTACCGTCGA
B16: Bcd oligo 20 (dsDNA)
DNA 1: TCGACGGTAAGCCCTA
DNA 2: TAGGGCTTACCGTCGA
B17: Bcd oligo 26 (dsDNA)
DNA 1: TCGACGGTAATCTCTA
DNA 2: TAGAGATTACCGTCGA
B18: Bcd oligo 28 (dsDNA)
DNA 1: TCGACGGTAATCCGTA
DNA 2: TACGGATTACCGTCGA
B19: Bcd oligo 24 (dsDNA)
DNA 1: TCGACGGTAATACCTA
DNA 2: TAGGTATTACCGTCGA
B20: Bcd oligo 11 (dsDNA)
DNA 1: TCGACGGGAATCCCTA
DNA 2: TAGGGATTCCCGTCGA
B21: Bcd oligo 1 (dsDNA)
DNA 1: TCGAGGGTAATCCCTA
DNA 2: TAGGGATTACCCTCGA
B22: Bcd oligo 27 (dsDNA)
DNA 1: TCGACGGTAATCACTA
DNA 2: TAGTGATTACCGTCGA
B23: Bcd oligo 14 (dsDNA)
DNA 1: TCGACGGTGATCCCTA
DNA 2: TAGGGATCACCGTCGA
B24: Bcd oligo 13 (dsDNA)
DNA 1: TCGACGGTCATCCCTA
DNA 2: TAGGGATGACCGTCGA
B25: Bcd oligo 16 (dsDNA)
DNA 1: TCGACGGTACTCCCTA
DNA 2: TAGGGAGTACCGTCGA
B26: Bcd oligo 30 (dsDNA)
DNA 1: TCGACGGTAATCCATA
DNA 2: TATGGATTACCGTCGA
B27: Bcd oligo 2 (dsDNA)
DNA 1: TCGATGGTAATCCCTA
DNA 2: TAGGGATTACCATCGA
B28: Bcd oligo 3 (dsDNA)
DNA 1: TCGAAGGTAATCCCTA
DNA 2: TAGGGATTACCTTCGA
B29: Bcd oligo 33 (dsDNA)
DNA 1: TCGACGGTAATCCCAA
DNA 2: TTGGGATTACCGTCGA
B30: Bcd oligo 29 (dsDNA)
DNA 1: TCGACGGTAATCCTTA
DNA 2: TAAGGATTACCGTCGA
B31: Bcd oligo 9 (dsDNA)
DNA 1: TCGACGATAATCCCTA
DNA 2: TAGGGATTATCGTCGA
B32: Bcd oligo 8 (dsDNA)
DNA 1: TCGACGTTAATCCCTA
DNA 2: TAGGGATTAACGTCGA
B33: Bcd oligo 21 (dsDNA)
DNA 1: TCGACGGTAAACCCTA
DNA 2: TAGGGTTTACCGTCGA
B34: Bcd oligo 19 (dsDNA)
DNA 1: TCGACGGTAACCCCTA
DNA 2: TAGGGGTTACCGTCGA
B35: Bcd EMSA 16-mer (dsDNA)
DNA 1: TCGACCGTAATCCCTA
DNA 2: TAGGGATTACGGTCGA
B36: Bcd consensus CGGTAATCCCT (dsDNA)
DNA 1: TCGACGGTAATCCCTA
DNA 2: TAGGGATTACCGTCGA
B37: Bcd competitor 8 (G3T) (dsDNA)
DNA 1: TCGACGTTAATCCCTA
DNA 2: TAGGGATTAAGGTCGA
B38: Bcd competitor 9 (G3A) (dsDNA)
DNA 1: TCGACGATAATCCCTA
DNA 2: TAGGGATTATGGTCGA
B39: Bcd competitor 10 (T4C) (dsDNA)
DNA 1: TCGACGGCAATCCCTA
DNA 2: TAGGGATTGCGGTCGA
B40: Bcd competitor 11 (T4G) (dsDNA)
DNA 1: TCGACGGGAATCCCTA
DNA 2: TAGGGATTCCGGTCGA

For the first data set, the system named is Giant DBD-GST (Gt). The experiment in a line: competitive fluorescence anisotropy (HiP-FA). Conditions: HiP-FA: 33 mM phosphate pH 7.0, 90 mM NaCl, 0.01% Tween 20, 0.1 mM DTT, 0.5% agarose; conventional titration and EMSA: 20 mM Tris-acetate pH 7.0, 50 nM …. A general note: A gel shift assay detects complexes by their altered migration in electrophoresis.
As for Gt consensus oligo, the Kd was 0.9 nM.

In a further data set the test system is Ttk-F DBD-GST. The data set can be described thus: competitive fluorescence anisotropy (HiP-FA). To be noted: HiP-FA: 33 mM phosphate pH 7.0, 90 mM NaCl, 0.01% Tween 20, 0.1 mM DTT, 0.5% agarose; conventional titration and EMSA: 20 mM Tris-acetate pH 7.0, 50 nM ….
Consider Ttk-F consensus oligo, for which the Kd is 48 nM.

The subject of another data set is Caudal DBD-GST (Cad). The experiment in a line: competitive fluorescence anisotropy (conventional titration). To be noted: HiP-FA: 33 mM phosphate pH 7.0, 90 mM NaCl, 0.01% Tween 20, 0.1 mM DTT, 0.5% agarose; conventional titration and EMSA: 20 mM Tris-acetate pH 7.0, 50 nM ….
With Cad consensus oligo, the Kd came out at 0.05 nM.

In a further data set the target is T1, Bcd homeodomain (Drosophila melanogaster, UniProt P09081-2 77-166).
T1 sequence: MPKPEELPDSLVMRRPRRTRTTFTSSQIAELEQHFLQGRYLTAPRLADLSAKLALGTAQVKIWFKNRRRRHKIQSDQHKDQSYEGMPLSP
The experiment in a line: FP; 33 mM phosphate pH 7.0, 90 mM NaCl, 0.01% Tween 20, 0.1 mM DTT, 0.5% agarose; room temperature. To be noted: tags: N-GST (pGEX-6P-1, kept).
For the molecule B1, the Kd is 2.2 nM. Same read-out and setting: to B2 belongs 5.86 nM; to B3, 6.66 nM.

Staying with this data set, now noted: tags: N-GST (pGEX-6P-1, kept); printed reverse strand differs at base 6 of strand 1 (G / C); complement of the forward strand used.
In the case of B4, the affinity, expressed as Kd, was 14.1 nM.

B5 came in with a Kd of 12.9 nM. B6 yielded a Kd of 29.4 nM.

Molecule B7 yielded a Kd of 128 nM. On to B8, for which the Kd is 92.1 nM.

For the molecule B9, binding was put at a Kd of 5.02 nM. Take B10: the dissociation constant (Kd) came out at 20.6 nM. In turn, B11 had a Kd of 3.8 nM.

The molecule B12 displayed a Kd of 27.2 nM. With B13, the Kd turned out to be 2.79 nM.

Take B14: the affinity, expressed as Kd, was 5.08 nM. In turn, B15 registered a Kd of 45.8 nM.

B16 gave a Kd of 18.8 nM. Molecule B17 yielded a Kd of 7.79 nM. Same read-out and setting: the value for B18 was 3.67 nM; that for B19 was 47.8 nM. Take B20: binding was characterised by a dissociation constant (Kd) of 21.4 nM.

Regarding B21, the affinity, expressed as Kd, was 2.7 nM. Still for that read-out and setting: the value for B22 was 12.7 nM; that for B23 was 8.98 nM. For B24, binding was put at a Kd of 64.3 nM.

The molecule B25 displayed a Kd of 146 nM. In turn, B26 gave a Kd of 5.18 nM. Molecule B27 registered a Kd of 2.66 nM. Take B28: the Kd worked out at 3.76 nM. As to B29, the affinity, expressed as Kd, was 4.71 nM. The same measure, in the same setting: the value for B30 was 4.03 nM.

Molecule B31 gave a Kd of 3.8 nM.

B32: the Kd is 2.83 nM. With B33, binding was characterised by a dissociation constant (Kd) of 48.8 nM. B34: the Kd came out at 94.1 nM.

Another data set has as its target T2, Bicoid DBD-GST (Bcd) (UniProt P09081 83-170).
T2 sequence: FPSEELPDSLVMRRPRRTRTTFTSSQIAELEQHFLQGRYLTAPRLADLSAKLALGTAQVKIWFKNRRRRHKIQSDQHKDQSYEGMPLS
The data set can be described thus: EMSA; direct titration; HiP-FA: 33 mM phosphate pH 7.0, 90 mM NaCl, 0.01% Tween 20, 0.1 mM DTT, 0.5% agarose; conventional titration and EMSA: 20 mM Tris-acetate pH 7.0, 50 nM (sic) NaCl, 0.01% Tween-20, 0.1 mM DTT. Conditions: protein: recombinant; tags: N-terminal GST; label: Cy3; blunt.
In the case of B35, the Kd was 1.8 ± 0.2 nM.

A further data set has as its target T2, Bicoid DBD-GST (Bcd). The data set can be described thus: competitive fluorescence anisotropy (HiP-FA); HiP-FA: 33 mM phosphate pH 7.0, 90 mM NaCl, 0.01% Tween 20, 0.1 mM DTT, 0.5% agarose; conventional titration and EMSA: 20 mM Tris-acetate pH 7.0, 50 nM (sic) NaCl, 0.01% Tween-20, 0.1 mM DTT. Conditions: protein: recombinant; tags: N-terminal GST; blunt.
As for B36, the Kd amounted to 2.2 nM.

In another data set the target is T2, Bicoid DBD-GST (Bcd). The data set can be described thus: competitive fluorescence anisotropy (HiP-FA); mean of replicates 2.83, 2.8405; HiP-FA: 33 mM phosphate pH 7.0, 90 mM NaCl, 0.01% Tween 20, 0.1 mM DTT, 0.5% agarose; conventional titration and EMSA: 20 mM Tris-acetate pH 7.0, 50 nM (sic) NaCl, 0.01% Tween-20, 0.1 mM DTT. To be noted: protein: recombinant; tags: N-terminal GST; blunt, G:G mismatch at position 6.
As for B37, the Kd worked out at 2.83 nM.

The target in a further data set is T2, Bicoid DBD-GST (Bcd). The experiment in a line: competitive fluorescence anisotropy (HiP-FA); mean of replicates 3.766, 3.8365; HiP-FA: 33 mM phosphate pH 7.0, 90 mM NaCl, 0.01% Tween 20, 0.1 mM DTT, 0.5% agarose; conventional titration and EMSA: 20 mM Tris-acetate pH 7.0, 50 nM (sic) NaCl, 0.01% Tween-20, 0.1 mM DTT. To be noted: protein: recombinant; tags: N-terminal GST; blunt, G:G mismatch at position 6.
In the case of B38, the Kd is 3.8 nM.

In a further data set the target is T2, Bicoid DBD-GST (Bcd). The data set can be described thus: competitive fluorescence anisotropy (HiP-FA); mean of replicates 18.854, 22.285; HiP-FA: 33 mM phosphate pH 7.0, 90 mM NaCl, 0.01% Tween 20, 0.1 mM DTT, 0.5% agarose; conventional titration and EMSA: 20 mM Tris-acetate pH 7.0, 50 nM (sic) NaCl, 0.01% Tween-20, 0.1 mM DTT. To be noted: protein: recombinant; tags: N-terminal GST; blunt, G:G mismatch at position 6.
As to B39, the Kd was 20.6 nM.

A further data set concerns the target T2, Bicoid DBD-GST (Bcd). The experiment in a line: competitive fluorescence anisotropy (HiP-FA); mean of replicates 20.981, 21.8595; HiP-FA: 33 mM phosphate pH 7.0, 90 mM NaCl, 0.01% Tween 20, 0.1 mM DTT, 0.5% agarose; conventional titration and EMSA: 20 mM Tris-acetate pH 7.0, 50 nM (sic) NaCl, 0.01% Tween-20, 0.1 mM DTT. Conditions: protein: recombinant; tags: N-terminal GST; blunt, G:G mismatch at position 6.
B40: the Kd was determined as 21.4 nM.
